Laboratory results: US20240358834A1 (University of Pennsylvania, published 2024)

target: T1, human CD19 protein with a biotinylated AviTag (Acrobiosystems) (human, UniProt P15391 20-291, biotinylated AviTag); assay: phage ELISA, biotinylated AviTag CD19 on streptavidin wells; signal ratio to FMC63 standard
T1 construct: Captured on streptavidin-coated microplate wells; also called biotinylated-AviTag-CD19; hCD19; not shown: AviTag
T1 sequence (looked up): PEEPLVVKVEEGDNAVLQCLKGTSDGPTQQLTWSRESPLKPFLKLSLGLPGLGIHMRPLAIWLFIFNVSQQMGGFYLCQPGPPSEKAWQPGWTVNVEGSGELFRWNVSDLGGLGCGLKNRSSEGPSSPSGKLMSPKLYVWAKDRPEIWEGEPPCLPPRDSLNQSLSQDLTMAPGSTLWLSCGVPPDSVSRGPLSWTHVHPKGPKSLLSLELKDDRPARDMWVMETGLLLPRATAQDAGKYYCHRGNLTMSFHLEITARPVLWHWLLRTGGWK
Description: To identify unique human CD19-binding monoclonal scFv from the panned libraries, individual phage antibody clones were expanded, assessed for binding to CD19 by ELISA, and subjected to nucleotide sequencing to identify those clones that were unique. A total of 84 scFvs were randomly selected from the panned libraries (70 from P3 and 14 from P4).

Binder	ELISA hCD19 (ratio FMC63)
scFv 35 (scFv, Canine scFv (VL-linker-VH); also called P4-08) scFv: SSVLTQPPSVSVSLGQTATISCSGESLSEYYAQWFQQKAGQAPVLVIYKDTERASGIPDRFSGSSSGNTHTLTISGARAEDEADYYCESAVNSDGIVFGGGTHLTVLGGGSSRSSSSGGGGSGGGGEVQLVESGGDLVKPAGSLRLSCVTSGFTFSSYAMSWVRQAPGKGLQWVGSINSGGSTTSYADAVKGRFTISRDNAKNTVYLQMNSLRAEDTAVYYCARWWDFEYWGQGTLVTVSSESPSPPNLTSGQAGQHHHHHHGAYPYDVPDYAS	0.23 ratio to FMC63
scFv 43 (scFv, Canine scFv (VL-linker-VH); also called P3-02; P3-19) scFv: DIVMTQNPLSLAVTPGELATISCRASQSLLHSDGKSYLNWYLQKPGQTPRPLIYEASRRFSGVSDRFNGSGSGTDFTLKISRVEAEDVGVYYCQQGLHFPPTFGAGTKVELKGGSSRSSSSGGGGSGGGGEVQLVESGGDLVKPGGSLRLSCAASGFTFTDYDMSWVRQAPGKGLQWVAAISYDGSSTYYTDAVKGRFTISRDNARNTLYLQMSSLRAEDTAMYYCVVSNMNLWGHGTSVFVSSASTTAPSVTSGQAGQHHHHHHGAYPYDVPDYAS	0.57 ratio to FMC63
scFv 41 (scFv, Canine scFv (VL-linker-VH); also called P3-08A; P3-08B) scFv: QPVLTQPPSVSVSLGQTATISCSGESLSKYYAQWFQQKAGQAPVLVIYKDTERPSGIPDRFSGSSSGNTHTLTISGARAEDEADYYCESAVSTETVVFGGGTHLTVLGGGSSRSSSSGGGGSGGGGEVQLVETGGDLVMPAGSLRLSCVASGFTFSSSVMSWVRQAPGKGLEWVAGINGGGSFAAYGDAVKGRFTISRDNAKNTLYLQMNSLRAEDTAMYYCVGGGYMDFWGPGTSLFVSSESPSPPNLTSGQAGQHHHHHHGAYPYDVPDYAS	0.47 ratio to FMC63
scFv 42 (scFv, Canine scFv (VL-linker-VH); also called P3-13) scFv: QSVLTQPTSVSGSLGQRVTISCSGSTNDIGIIGAAWYQQLPGKAPKLLLYSNKNRPSGVPDRFSGSNSGISATLTITGLQAEDEADYYCQSVDPALHTYVFGSGTQLTILGGGSSRSSSSGGGGSGGGGEVQLVEIGGDLVKPEGSLRLSCVVSGFTFSGYDMNWVRQAPGKGLQWVAYISSDGRRTVYTDAVKGRFTISRDNAKNTLYLQMNSLKSEDTAVYYCVKGGWLDFWGQGTLVTVSSESPSPPNLTSGQAGQHHHHHHGAYPYDVPDYAS	0.14 ratio to FMC63
scFv 36 (scFv, Canine scFv (VL-linker-VH); also called P3-25) scFv: QSVLTQPTSVSGSLGQRVTISCSGSTNNIGIVGASWYQQLPGKAPKLLVYSDGDRPSGVPDRFSGSNSGNSDTLTITGLQAEDEADYYCQSFDTTLDAYVFGSGTQLTVLGGGSSRSSSSGGGGSGGGGEEQLVEFGGGLVRPGGSLRLSCVASGFTFSSYGMTWVRQSPGKGLQWVATISDTGSTYYADTVKGRFSISRDNAKNTLYLQMNSLRADDTALYYCTKDLGVWGMDNWGPGTSLFVSSASTTAPSVTSGQAGQHHHHHHGAYPYDVPDYAS	0.6 ratio to FMC63
scFv 38 (scFv, Canine scFv (VL-linker-VH); also called P3-17) scFv: SSVLTQPPSVSVSLGQTATISCSGESLSEYYAQWFQQKAGQAPVLVIYKDTERPSGIPDRFSGSSSGNTHTLTISGARAEDEADYYCASADSSAIPVFGGGTHLTVLGGGSSRSSSSGGGGSGGGGEVQLVESGGDLVKPGGSLRLSCVASGFNFGNYAVSWVRQAPGKGLQWVAGISNDGTITGYTDVVEGRFIISRDNAKNTLYLQMNSLRAEDMAIYYCVAGGFLDYWGQGTLVTVSSASTTAPSVTSGQAGQHHHHHHGAYPYDVPDYAS	0.64 ratio to FMC63
scFv 39 (scFv, Canine scFv (VL-linker-VH); also called P3-29) scFv: QSVLTQPPSVSGSPGQRVTISCSGTTKNIGIVGASWYQQLPGKAPKLLVHSDGFRPSGVPDRFSASNSGDSDILTITGLQAEDEADYYCQSFDTTLDAHVFGSGTQLTVLGGGSSRSSSSGGGGSGGGGEVPLVESGGDLVKPGGSLRLSCVASGFTFSSYGMSWVRQSPGKGLQWVAGITYDGSNTYYTDTVRGRFTISRDNARNTVYLQMNSLRAEDTAVYYCVASPLYGTYGFDYWGHGTSVFVSSASTTAPSVTSGQAGQHHHHHHGAYPYDVPDYAS	0.19 ratio to FMC63
scFv 4 (scFv, Canine scFv (VL-linker-VH); also called scFv_04; P3-06) scFv: QSVLNQPPSVSGALGQTVTISCSGSHTNIGSGFDVQWYQQLPGKSPQTIIYANINRPSGVPARFSGSKSGSTATLTITGVQAEDEADYYCQSYDDNFDYVFGSGTQLTVLGGGSSRSSSSGGGGSGGGGEEQLVEFGGDLVKPGGSLRLSCVVSGFDFSRYGMSWVRQSPGKGLQWVADISYRGTTFYADDVKGRFTVSRDSAKNTLYLEMTSLTVEDTAVYYCANSANWYVSPFDHWGQGTLVTVSSASTTAPSVTSGQAGQHHHHHHGAYPYDVPDYAS	0.77 ratio to FMC63
scFv 33 (scFv, Canine scFv (VL-linker-VH); also called P3-07) scFv: DIVMTQTPLSLSVSPGEPASISCKASQSLLHSDGNTYLHWYLQKPGQSPQLLIYSVSNRFTGVSDRFSGSGSGTDFTLRISRVEADDTGVYYCGQGTHLPFTFGQGTKLEIKGGSSRSSSSGGGGSGGGGEVQLVESGGDLVKPGGSLRLSCAASGFTFSHYDMNWVRQAPGKGLQWVASIAYDGSNTYYTDAVKGRFTISRDNAKNILFLLVNSLRAEDTAIYYCARGLVYWGQGTLVTVSSASTTAPSVTSGQAGQHHHHHHGAYPYDVPDYAS	0.43 ratio to FMC63
scFv 37 (scFv, Canine scFv (VL-linker-VH); also called P3-27) scFv: SSVLTQPPSVSVSLGQTATISCSGESLNDYYAQWFQQKAGQVPVLVIYRDTERPSGIPDRFSGSSSGNTHTLTISGARAEDEADYYCESEVSAGGAVFGEGTHLTVLGGGSSRSSSSGGGGSGGGGEVQLVETGGDLVKPGGSLRLSCVASGFTLRDYSMTWVRQTPEKGLQLVAGISTGGSTTYYIDAVKGRFTISRDNAKNTVYLQMNSLRAEDTAMYHCTTTALGYWGQGTLVTVSSASTTTPSVTSGQAGQHHHHHHGAYPYDVPDYAS	0.1 ratio to FMC63
scFv 40 (scFv, Canine scFv (VL-linker-VH); also called P3-59B) scFv: QSVLTQPPSVSGSLGQKVTISCTGSSSSVGTHYVGWYQIPPGIGPRTVIYNNDYRPSGVPDRFSGSKSGNSATLTISGLQAEDEADYYCSSWDDSLGAYVLGSGTQLTILGGGSSRSSSSGGGGSGGGGELTLQESGPGLVKPSQTLSLTCAVSGGSVIRGYYWTWIRQRPGRGLEWMGYWAGSTDYNPAFQGRIFITAGTAKNQFSLEMTSMTTDDTAIYYCVGSLRGGWLFDNWGQGTLVTVSSASTTAPSVTSGQAGQHHHHHHGAYPYDVPDYAS	0.14 ratio to FMC63
scFv 6 (scFv, Canine scFv (VL-linker-VH); also called scFv_06; P3-28) scFv: QPVLTQPPSVSGSLGQRVTISCTGTNTNIGSGYSVQWYQQLPGESPKPIIYGSSNRPSGVPARFSGSKSGSTGTLTITGIQAEDEADYHCQSYDDSLDGHAVFGGGTQLTILGGGSSRSSSSGGGGSGGGGEVQLVQSGGDLVKPGGSLRLSCVASGFTFSDNYMSWIRQVPGKGLQWVSRISTDGRGTSYADAVKGRFTISRDNAKNTLYLQMNSLRDEDTAVYYCARRSGIWGFDYWGQGALVTVSSESPSPPNLTSGQAGQHHHHHHGAYPYDVPDYAS	0.47 ratio to FMC63
scFv 34 (scFv, Canine scFv (VL-linker-VH); also called P3-44) scFv: SYELTQPPSVSAALGQRVTISCTGTNTNIGSGYSVQWYQQLPGESPKPIIYGSSNRPSGVPARFSGSKSGSTGTLTITGIQAEDEADYHCQSYDDSLDGHAVFGGGTQLTILGGGSSRSSSSGGGGSGGGGEVQLVESGGDLVKPGGSLRLSCVASGLTFSDNYMSWIRQVPGKGLQWVSRISTDGRGTSYADAVKGRFTISRDNAKNTLYLQMNSLRDEDTAVYYCARRSGIWGFDYWGQGTLVTVSSESPSPPNLTSGQAGQHHHHHHGAYPYDVPDYAS	0.73 ratio to FMC63
